This is an account of results in article doi:10.1101/2025.11.19.689067 (bioRxiv, 2025).

Common to all, as to assay: bead-based binding assay (Luminex)
In test [1] the target is DENV2 NS1 β-ladder-Halotag (residues 178-352) (dengue virus serotype 2).
Test [2] deals with DENV2 NS1 wing-Halotag (residues 30-174) (dengue virus serotype 2).
Test [3] has as its target T1, DENV2 NS1 (recombinant, biotinylated, on Luminex beads) (dengue virus serotype 2, UniProt P29990 776-1127).
T1 sequence: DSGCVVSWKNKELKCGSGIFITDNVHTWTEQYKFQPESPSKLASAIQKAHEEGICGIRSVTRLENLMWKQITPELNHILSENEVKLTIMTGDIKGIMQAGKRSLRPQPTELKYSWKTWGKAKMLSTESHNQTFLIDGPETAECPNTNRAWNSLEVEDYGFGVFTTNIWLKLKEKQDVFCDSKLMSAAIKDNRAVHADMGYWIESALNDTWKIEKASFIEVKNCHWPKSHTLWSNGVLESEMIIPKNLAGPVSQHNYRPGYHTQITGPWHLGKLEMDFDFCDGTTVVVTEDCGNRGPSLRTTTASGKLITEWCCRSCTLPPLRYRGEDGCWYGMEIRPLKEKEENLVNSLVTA
To be noted: both partners purified.

In the case of “EFNB1 RBD-Fc fusion protein (from UniProt P98172 28-164)”, the fold relative binding (EFNB1 Fc over Gluc Fc) was determined as 15 fold in test [1] and 50 fold in test [2].

B1: EFNB1 RBD-Fc fusion protein (Fc fusion)
chain: LAKNLEPVSWSSLNPKFLSGKGLVIYPKIGDKLDIICPRAEAGRPYEYYKLYLVRPEQAAACSTVLDPNVLVTCNRPEQEIRFTIKFQEFSPNYMGLEFKKHHDYYITSTSNGSLEGLENREGGVCRTRTMKIIMKV
As for B1, the “fold binding over the Gluc-Fc negative control” value in test [3] was 40 fold.
